Columns and labels:
[1] = target: T1, GST-Msn5 (S. cerevisiae, UniProt P52918 1-1224); test: pull-down; GST-tagged importins immobilised on Glutathione Sepharose, incubated with buffer, purified Fap7 or Fap7:uS11 for 1 hr, in presence of 100 µl competing E. coli lysate; Coomassie and Western; details: both partners purified
T1 construct: Msn5, S. cerevisiae; source: E. coli BL21, purified as previously described
T1 sequence (looked up): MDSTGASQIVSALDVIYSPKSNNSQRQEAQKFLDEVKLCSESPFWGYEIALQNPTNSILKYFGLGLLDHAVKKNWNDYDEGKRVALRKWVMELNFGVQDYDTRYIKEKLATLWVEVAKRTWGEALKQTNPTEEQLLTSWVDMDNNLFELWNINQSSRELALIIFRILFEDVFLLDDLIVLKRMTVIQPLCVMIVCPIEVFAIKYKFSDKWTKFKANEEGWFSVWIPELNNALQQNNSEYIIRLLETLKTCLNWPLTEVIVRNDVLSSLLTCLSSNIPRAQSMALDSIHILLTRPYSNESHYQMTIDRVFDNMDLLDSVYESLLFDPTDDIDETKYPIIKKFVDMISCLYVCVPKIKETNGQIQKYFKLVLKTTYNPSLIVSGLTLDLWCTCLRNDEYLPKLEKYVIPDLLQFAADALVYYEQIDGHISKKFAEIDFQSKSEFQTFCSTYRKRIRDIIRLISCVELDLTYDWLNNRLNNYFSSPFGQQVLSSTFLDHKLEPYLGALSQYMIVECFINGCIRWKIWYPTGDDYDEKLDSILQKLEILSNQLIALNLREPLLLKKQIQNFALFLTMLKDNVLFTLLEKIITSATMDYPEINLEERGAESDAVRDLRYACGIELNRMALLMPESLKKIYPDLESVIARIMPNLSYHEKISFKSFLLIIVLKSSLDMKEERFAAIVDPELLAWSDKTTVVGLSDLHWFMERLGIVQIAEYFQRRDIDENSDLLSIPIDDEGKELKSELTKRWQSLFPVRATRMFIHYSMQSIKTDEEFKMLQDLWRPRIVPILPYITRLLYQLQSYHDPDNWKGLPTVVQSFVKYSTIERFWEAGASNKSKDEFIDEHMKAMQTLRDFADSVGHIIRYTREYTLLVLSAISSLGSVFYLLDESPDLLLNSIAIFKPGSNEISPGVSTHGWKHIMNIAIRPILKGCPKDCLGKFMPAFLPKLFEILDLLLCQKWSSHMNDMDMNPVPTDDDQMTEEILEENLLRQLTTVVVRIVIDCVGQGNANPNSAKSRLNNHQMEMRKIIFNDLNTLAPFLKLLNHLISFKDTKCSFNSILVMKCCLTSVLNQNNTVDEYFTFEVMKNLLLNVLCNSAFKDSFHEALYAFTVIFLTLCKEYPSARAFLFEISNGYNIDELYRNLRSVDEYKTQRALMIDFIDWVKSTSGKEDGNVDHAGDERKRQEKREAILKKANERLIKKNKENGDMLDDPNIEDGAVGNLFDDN

[2] = target: T2, GST-Kap123 (S. cerevisiae, UniProt P40069 1-1113); test: as above; details: both partners purified
T2 construct: importin Kap123, S. cerevisiae; source: E. coli BL21, purified as previously described
T2 sequence (looked up): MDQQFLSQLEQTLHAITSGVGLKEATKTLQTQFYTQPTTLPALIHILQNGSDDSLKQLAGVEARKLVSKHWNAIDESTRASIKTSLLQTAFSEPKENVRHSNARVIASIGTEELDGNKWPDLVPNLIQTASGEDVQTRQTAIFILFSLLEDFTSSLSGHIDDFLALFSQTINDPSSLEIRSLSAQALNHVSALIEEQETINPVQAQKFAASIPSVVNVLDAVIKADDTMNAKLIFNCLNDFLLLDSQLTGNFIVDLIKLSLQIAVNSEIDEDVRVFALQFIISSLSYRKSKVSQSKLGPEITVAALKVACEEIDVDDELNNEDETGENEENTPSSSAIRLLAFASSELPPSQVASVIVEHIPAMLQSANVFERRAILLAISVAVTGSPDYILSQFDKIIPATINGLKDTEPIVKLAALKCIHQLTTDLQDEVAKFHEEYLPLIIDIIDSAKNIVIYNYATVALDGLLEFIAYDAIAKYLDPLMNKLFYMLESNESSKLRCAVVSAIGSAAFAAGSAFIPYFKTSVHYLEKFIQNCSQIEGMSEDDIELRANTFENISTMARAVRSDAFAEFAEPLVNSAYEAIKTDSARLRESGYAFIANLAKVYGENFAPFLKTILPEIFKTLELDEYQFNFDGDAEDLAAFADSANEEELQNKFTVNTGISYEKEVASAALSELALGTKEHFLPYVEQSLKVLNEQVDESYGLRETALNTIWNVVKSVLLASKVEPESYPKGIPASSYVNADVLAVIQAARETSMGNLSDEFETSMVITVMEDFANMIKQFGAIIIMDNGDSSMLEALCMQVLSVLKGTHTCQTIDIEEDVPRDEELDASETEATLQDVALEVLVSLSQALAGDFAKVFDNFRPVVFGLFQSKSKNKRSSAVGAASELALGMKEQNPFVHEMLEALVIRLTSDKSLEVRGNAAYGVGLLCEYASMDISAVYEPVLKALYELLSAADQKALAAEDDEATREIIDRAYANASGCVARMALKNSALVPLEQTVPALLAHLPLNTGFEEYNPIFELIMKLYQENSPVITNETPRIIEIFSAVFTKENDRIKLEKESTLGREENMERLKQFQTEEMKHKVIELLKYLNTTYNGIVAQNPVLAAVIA

B1: Fap7 (enzyme, S. cerevisiae, UniProt Q12055 1-197, looked up)
chain: MEARRYGPNIIVTGTPGCGKSSTCEFLKNKLKDYKYYNISDFAKDNDCFEGYDEGRKSHIVDEDKLLDMLEPLLRQGNSIVDWHVNDVFPERLIDLVVVLRCDNSNLYSRLHARGYHDSKIEENLDAEIMGVVKQDAVESYEPHIVVELQSDTKEDMVSNVSRIVAWEKMWLEQHPDGVTNEYQGPRSDDEDDEDSE
notes: Fap7, conserved ATPase, S. cerevisiae (YDL166C); only the complex is printed as His6-Fap7:uS11; also called purified Fap7; Fap7 alone; source: E. coli BL21, purified
[1]
  binding result: binds
[2]
  binding result: binds

From article PMC5148605, “Prefabrication of a ribosomal protein subcomplex essential for eukaryotic ribosome formation” (eLife, 2016)
